Data published in patent EP4536686B1 (GENETHON, dated 2025).

Target: T1, integrin heterodimer αVβ6 (ITGAV-B6) (human, UniProt P06756 31-1048; P18564 22-788)
T1 construct: whole, on cells; Species is read from the 'h' prefix of hITGAV and hITGB6; also called ITGAV-B6 heterodimers; hITGAV and hITGB6
Assay: concluding sentence, resting on the infection and luciferase assay in 293_ITGAV-B6 cells; no direct binding assay

T1 sequence (P06756 31-1048, chain 1 of 2): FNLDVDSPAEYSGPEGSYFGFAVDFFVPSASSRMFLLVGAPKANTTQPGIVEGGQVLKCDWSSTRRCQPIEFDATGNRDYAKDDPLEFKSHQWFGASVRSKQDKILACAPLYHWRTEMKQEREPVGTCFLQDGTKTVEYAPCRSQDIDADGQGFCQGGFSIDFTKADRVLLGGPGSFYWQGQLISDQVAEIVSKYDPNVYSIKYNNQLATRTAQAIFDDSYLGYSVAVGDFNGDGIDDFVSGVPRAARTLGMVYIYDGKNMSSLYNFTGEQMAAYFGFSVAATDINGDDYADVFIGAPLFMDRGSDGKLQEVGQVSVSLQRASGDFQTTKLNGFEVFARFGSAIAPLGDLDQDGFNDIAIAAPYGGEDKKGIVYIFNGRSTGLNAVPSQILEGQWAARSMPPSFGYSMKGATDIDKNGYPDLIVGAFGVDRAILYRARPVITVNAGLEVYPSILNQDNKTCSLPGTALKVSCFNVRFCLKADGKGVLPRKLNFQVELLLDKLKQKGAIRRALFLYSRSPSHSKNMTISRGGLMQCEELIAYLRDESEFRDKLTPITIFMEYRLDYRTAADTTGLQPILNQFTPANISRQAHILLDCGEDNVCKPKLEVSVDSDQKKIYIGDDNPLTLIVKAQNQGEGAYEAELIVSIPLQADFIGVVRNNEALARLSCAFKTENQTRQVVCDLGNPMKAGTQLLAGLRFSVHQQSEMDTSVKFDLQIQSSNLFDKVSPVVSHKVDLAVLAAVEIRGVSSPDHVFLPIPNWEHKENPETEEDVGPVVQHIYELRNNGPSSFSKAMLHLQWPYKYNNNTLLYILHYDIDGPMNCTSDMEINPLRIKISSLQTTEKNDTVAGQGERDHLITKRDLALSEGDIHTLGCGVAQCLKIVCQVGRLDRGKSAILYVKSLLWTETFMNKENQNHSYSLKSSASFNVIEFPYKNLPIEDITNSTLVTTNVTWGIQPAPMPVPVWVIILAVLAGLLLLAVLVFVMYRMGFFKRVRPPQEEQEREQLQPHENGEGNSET
T1 sequence (P18564 22-788, chain 2 of 2): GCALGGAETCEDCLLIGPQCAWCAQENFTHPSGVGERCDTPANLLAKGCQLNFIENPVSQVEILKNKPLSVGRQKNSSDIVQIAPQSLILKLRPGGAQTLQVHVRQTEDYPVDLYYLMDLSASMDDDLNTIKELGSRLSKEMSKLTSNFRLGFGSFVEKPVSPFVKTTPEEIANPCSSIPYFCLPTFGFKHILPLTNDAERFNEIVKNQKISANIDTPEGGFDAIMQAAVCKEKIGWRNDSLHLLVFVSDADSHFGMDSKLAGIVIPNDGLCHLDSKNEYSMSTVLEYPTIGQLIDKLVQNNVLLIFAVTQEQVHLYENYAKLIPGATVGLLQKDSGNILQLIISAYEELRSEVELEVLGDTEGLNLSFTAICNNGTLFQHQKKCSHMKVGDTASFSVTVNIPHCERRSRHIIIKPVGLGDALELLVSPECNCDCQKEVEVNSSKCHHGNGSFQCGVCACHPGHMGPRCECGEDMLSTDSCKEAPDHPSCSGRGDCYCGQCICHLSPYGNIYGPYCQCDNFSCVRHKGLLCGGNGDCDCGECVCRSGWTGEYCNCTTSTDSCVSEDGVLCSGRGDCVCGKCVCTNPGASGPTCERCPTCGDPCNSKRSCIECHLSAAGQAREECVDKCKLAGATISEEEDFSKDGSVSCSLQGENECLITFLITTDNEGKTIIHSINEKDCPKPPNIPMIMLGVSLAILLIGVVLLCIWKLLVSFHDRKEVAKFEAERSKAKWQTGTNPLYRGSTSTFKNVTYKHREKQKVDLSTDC

B1: AAV_Cap9rh74_VR4-4um9.Nat (other)
chain: MAADGYLPDWLEDNLSEGIREWWALKPGAPQPKANQQHQDNARGLVLPGYKYLGPGNGLDKGEPVNAADAAALEHDKAYDQQLKAGDNPYLKYNHADAEFQERLKEDTSFGGNLGRAVFQAKKRLLEPLGLVEEAAKTAPGKKRPVEQSPQEPDSSAGIGKSGAQPAKKRLNFGQTGDTESVPDPQPIGEPPAAPSGVGSLTMASGGGAPVADNNEGADGVGSSSGNWHCDSQWLGDRVITTSTRTWALPTYNNHLYKQISNSTSGGSSNDNAYFGYSTPWGYFDFNRFHCHFSPRDWQRLINNNWGFRPKRLNFKLFNIQVKEVTDNNGVKTIANNLTSTVQVFTDSDYQLPYVLGSAHEGCLPPFPADVFMIPQYGYLTLNDGSQAVGRSSFYCLEYFPSQMLRTGNNFQFSYEFENVPFHSSYAHSQSLDRLMNPLIDQYLYYLSRTQSTDGRGDLGRLGPQQLLFSQAGPNNMSAQAKNWLPGPCYRQQRVSTTLSQNNNSNFAWTGATKYHLNGRDSLVNPGVAMATHKDDEERFFPSSGVLMFGKQGAGKDNVDYSSVMLTSEEEIKTTNPVATEQYGVVADNLQQQNAAPIVGAVNSQGALPGMVWQNRDVYLQGPIWAKIPHTDGNFHPSPLMGGFGMKHPPPQILIKNTPVPADPPTAFNKDKLNSFITQYSTGQVSVEIEWELQKENSKRWNPEIQYTSNYYKSNNVEFAVNTEGVYSEPRPIGTRYLTRNL
notes: Tested as a whole recombinant AAV vector particle packaging CMV-GFP/Luc; also called Cap9rh74_VR4-4um9(LICA.01)
Q: Does B1 bind?
A: binds

B2: AAV_Cap9rh74_VR4-5ffo.Nat (other)
chain: MAADGYLPDWLEDNLSEGIREWWALKPGAPQPKANQQHQDNARGLVLPGYKYLGPGNGLDKGEPVNAADAAALEHDKAYDQQLKAGDNPYLKYNHADAEFQERLKEDTSFGGNLGRAVFQAKKRLLEPLGLVEEAAKTAPGKKRPVEQSPQEPDSSAGIGKSGAQPAKKRLNFGQTGDTESVPDPQPIGEPPAAPSGVGSLTMASGGGAPVADNNEGADGVGSSSGNWHCDSQWLGDRVITTSTRTWALPTYNNHLYKQISNSTSGGSSNDNAYFGYSTPWGYFDFNRFHCHFSPRDWQRLINNNWGFRPKRLNFKLFNIQVKEVTDNNGVKTIANNLTSTVQVFTDSDYQLPYVLGSAHEGCLPPFPADVFMIPQYGYLTLNDGSQAVGRSSFYCLEYFPSQMLRTGNNFQFSYEFENVPFHSSYAHSQSLDRLMNPLIDQYLYYLSRTQSEPRRGDLATIGSQQLLFSQAGPNNMSAQAKNWLPGPCYRQQRVSTTLSQNNNSNFAWTGATKYHLNGRDSLVNPGVAMATHKDDEERFFPSSGVLMFGKQGAGKDNVDYSSVMLTSEEEIKTTNPVATEQYGVVADNLQQQNAAPIVGAVNSQGALPGMVWQNRDVYLQGPIWAKIPHTDGNFHPSPLMGGFGMKHPPPQILIKNTPVPADPPTAFNKDKLNSFITQYSTGQVSVEIEWELQKENSKRWNPEIQYTSNYYKSNNVEFAVNTEGVYSEPRPIGTRYLTRNL
notes: Tested as a whole recombinant AAV vector particle packaging CMV-GFP/Luc
Q: Does B2 bind?
A: binds
